The record followed here is article PMC6088750.

Substrate in the data set: O=S(O)(O)=S
Kind of data set: thiosulfate sulfurtransferase initial rates, Michaelis-Menten fit. Particulars: RHD domain activity; minimal TST activity. The class given is biochemical, Enterococcus faecalis.

B1: Ef CDR-RHD / CoA persulfide reductase (CoAPR) (Enterococcus faecalis OG1RF) (protein)
chain: MKIVIIGGVAGGMSAATRLRRLMEDAEIVVMEKGPFVSFANCGLPYYVSGEIAEREQLLVQTPEALKARFNLDVRPHHEVVAIDPIEKVITVKHETEILTEHYDKLILSPGAKPFVPPITGLAEAKNVFSLRNVPDLDQIMTALTPETKRAVVIGAGFIGLEMAENLQKRGLEVTLVEKAPHVLPPLDEEMAAFVKAELSKNNVQVITGQSAVAFEEEGQVIRLEDGQTLASDLTILSVGVQPENTLAVEAGVATGLRGGIVVDEHYQTNQPDIYAVGDAIVVKQQITQEDALISLASPANRQGRQVADVIAGLERKNQGSIGTAIVRVFDLTAASTGLSERAAKAAGLTTAVVHISGKDHAGYYPGATDLQLKLVFHPTTGEIYGAQGIGAKGVDKRIDILATAIKGQLTIFDLPELEFTYAPPFGSAKDPVNMLGYAAMNLVEGLSENVQWYELSNELAKGAVLLDVRNPAERANGQFKNAVSIPLNELRERLEELDKSTEYIVSCHSGLRSYIAERMLKQAGISAKNLDGAFALYRMVKPEELENV
The Km is the concentration of substrate that gives half-maximal velocity. In the case of B1, the Km was found to be 1000 ± 600 µM.
